According to the Human Domainome abundance scans (Beltran et al. 2025):
± gives the uncertainty stated by the source.

B1: FERM and PDZ domain-containing protein 4, residues 75 to 154; numbered along this chain, Q14CM0 (parent)
chain: APRKVEMRRDPVLGFGFVAGSEKPVVVRSVTPGGPSEGKLIPGDQIVMINDEPVSAAPRERVIDLVRSCKESILLTVIQP
B2: Androgen receptor, residues 557 to 632; numbered along this chain, P10275 (parent)
chain: QKTCLICGDEASGCHYGALTCGSCKVFFKRAAEGKQKYLCASRNDCTIDKFRRKNCPSCRLRKCYEAGMTLGARKL

Variants of: B1
Assay: abundance fitness (aPCA) (normalised: wild type 0, dead -1); higher = more abundant; growth selection in yeast, the domain comes from the species named
Details: Homo sapiens

Abundance fitness of substitutions, site by site:
K4: N -0.218 ± 0.28, S -0.084 ± 0.29, L -0.068 ± 0.31, R 0.114 ± 0.17
P2: R -0.01 ± 0.023, G 0 ± 0.027, V -0.049 ± 0.027, H 0.023 ± 0.032, D -0.083 ± 0.042, K -0.051 ± 0.042, C -0.066 ± 0.044, T 0.007 ± 0.029, I 0.019 ± 0.048, N -0.003 ± 0.048, Y -0.004 ± 0.05, F -0.012 ± 0.052, M 0.023 ± 0.041, L -0.015 ± 0.026, W -0.119 ± 0.033, A -0.074 ± 0.026, E 0.044 ± 0.032
E6: F 0.043 ± 0.037, H 0.039 ± 0.039, G -0.144 ± 0.02, N -0.014 ± 0.043, S -0.016 ± 0.023, P -0.184 ± 0.028, Q -0.03 ± 0.029, M -0.061 ± 0.028, Y 0.007 ± 0.037, V -0.091 ± 0.022, R -0.029 ± 0.02, K 0.002 ± 0.029, C -0.065 ± 0.03, T -0.009 ± 0.027, I -0.006 ± 0.033, A -0.086 ± 0.022, L -0.018 ± 0.022, W -0.047 ± 0.025
V5: H -0.349 ± 0.041, N -0.778 ± 0.069, E -0.192 ± 0.029, R -0.679 ± 0.026, G -0.997 ± 0.036, K -0.749 ± 0.059, C -0.556 ± 0.038, T -0.325 ± 0.032, L -0.154 ± 0.023, Q -0.522 ± 0.034, A -0.219 ± 0.026, F -0.085 ± 0.036, M -0.192 ± 0.031, Y -0.107 ± 0.04, S -0.623 ± 0.031, D -0.976 ± 0.096
R9: C -0.19 ± 0.033, P -0.086 ± 0.029, A -0.066 ± 0.024, Y -0.089 ± 0.064, W -0.089 ± 0.028, I -0.142 ± 0.038, M -0.149 ± 0.032, F -0.031 ± 0.037, E -0.382 ± 0.03, T -0.277 ± 0.03, G -0.402 ± 0.024, H -0.227 ± 0.06, K -0.031 ± 0.031, N -0.157 ± 0.063, D -0.792 ± 0.09, V -0.217 ± 0.024, S -0.152 ± 0.025, Q -0.3 ± 0.035
V12: I -0.055 ± 0.04, S -0.006 ± 0.031, R -0.023 ± 0.027, K 0.004 ± 0.04, C -0.056 ± 0.04, L -0.001 ± 0.029, Y -0.065 ± 0.049, M 0.007 ± 0.041, E -0.068 ± 0.036, G -0.048 ± 0.025, F -0.089 ± 0.054, Q 0 ± 0.037, P -0.545 ± 0.046, D 0.004 ± 0.046, H 0.043 ± 0.051, T 0.049 ± 0.039, W -0.14 ± 0.038, N 0.025 ± 0.056
P11: N -0.157 ± 0.043, C -0.243 ± 0.033, T -0.111 ± 0.029, E -0.117 ± 0.031, M -0.148 ± 0.031, W -0.405 ± 0.029, K -0.09 ± 0.031, D -0.063 ± 0.048, L -0.143 ± 0.023, R -0.123 ± 0.021, G -0.128 ± 0.021, Q -0.131 ± 0.03, A -0.137 ± 0.028, Y -0.391 ± 0.085, V -0.247 ± 0.026, H -0.208 ± 0.054, I -0.162 ± 0.042, F -0.329 ± 0.046
L13: W -0.046 ± 0.084, F -0.046 ± 0.17, S -0.013 ± 0.094, V -0.003 ± 0.094
R8: I 0.006 ± 0.046, V -0.038 ± 0.029, Q 0.018 ± 0.043, M -0.014 ± 0.042, F 0.013 ± 0.043, N -0.09 ± 0.062, C -0.12 ± 0.044, S -0.024 ± 0.032, H -0.058 ± 0.052, Y -0.059 ± 0.055, G -0.052 ± 0.027, L -0.011 ± 0.028, P -0.116 ± 0.048, D 0.029 ± 0.042, A -0.009 ± 0.032, W -0.043 ± 0.033, E 0.034 ± 0.038
G14: I -0.719 ± 0.062, R -0.496 ± 0.028, M -0.404 ± 0.04, S -0.273 ± 0.028, K -0.247 ± 0.04, C -0.502 ± 0.042, H -0.303 ± 0.043, Y -0.761 ± 0.068, W -1 ± 0.071, F -0.822 ± 0.077, L -0.677 ± 0.035, D -0.025 ± 0.036, T -0.718 ± 0.044, P -0.963 ± 0.073, N -0.131 ± 0.044, V -0.779 ± 0.039
R3: C -0.985 ± 0.064, K -0.036 ± 0.029, Q -0.243 ± 0.032, P -0.937 ± 0.056, D -0.659 ± 0.045, W -0.769 ± 0.041, V -0.165 ± 0.022, F -0.194 ± 0.033, G -0.666 ± 0.025, Y -0.197 ± 0.038, S -0.451 ± 0.026, E -0.517 ± 0.032, T -0.338 ± 0.029, H -0.176 ± 0.038, L -0.238 ± 0.024, M -0.188 ± 0.03, I -0.099 ± 0.035, N -0.299 ± 0.04
D10: T -0.38 ± 0.043, N -0.071 ± 0.044, K -0.42 ± 0.063, G -0.591 ± 0.032, W -0.422 ± 0.041, M -0.207 ± 0.048, E -0.27 ± 0.037, L -0.369 ± 0.034, F -0.535 ± 0.062, R -0.455 ± 0.031, I -0.364 ± 0.067, V -0.214 ± 0.03, Q -0.32 ± 0.046, C -0.138 ± 0.04, S -0.099 ± 0.032, H -0.12 ± 0.057, Y -0.521 ± 0.058
F15: A -0.729 ± 0.034, H -0.828 ± 0.089, C -0.758 ± 0.061, E -0.805 ± 0.045, D -0.781 ± 0.063
M7: N -1.07 ± 0.11, V -0.034 ± 0.021, K -1 ± 0.073, T -0.36 ± 0.03, E -0.918 ± 0.051, F -0.085 ± 0.036, Q -0.937 ± 0.057, W -1.02 ± 0.047, Y -0.835 ± 0.075, D -1.08 ± 0.085, G -0.877 ± 0.031, I 0.018 ± 0.033, C -0.247 ± 0.032, S -0.535 ± 0.027, R -0.967 ± 0.032, A -0.213 ± 0.024, H -1.01 ± 0.096, L 0.04 ± 0.022
A1: F -0.199 ± 0.17, S -0.207 ± 0.045, Q -0.704 ± 0.2, G -0.157 ± 0.024, E -0.329 ± 0.037, V -0.207 ± 0.028, W -0.569 ± 0.096, I 0.122 ± 0.49, D -0.046 ± 0.05, C 0.003 ± 0.064, Y -0.14 ± 0.099, T -0.278 ± 0.045, P -0.734 ± 0.16, M -0.227 ± 0.084

Variants of: B2
Assay: as above
Details: Homo sapiens

Abundance fitness: each site, then its substitutions
G68: D -0.581 ± 0.47
G72: V -0.062 ± 0.075, L -0.062 ± 0.068, S -0.092 ± 0.1, E 0.126 ± 0.088, Y -0.074 ± 0.13, F 0.06 ± 0.11, Q 0.089 ± 0.13, N -0.136 ± 0.13, H -0.046 ± 0.15, C -0.075 ± 0.13, K -0.134 ± 0.14, D 0.098 ± 0.11, W -0.076 ± 0.12, A -0.011 ± 0.075, R -0.009 ± 0.069, T -0.056 ± 0.12
L76: S -0.084 ± 0.086
R74: N -0.044 ± 0.1, S -0.032 ± 0.059, G 0.05 ± 0.05, H -0.036 ± 0.12, M -0.056 ± 0.1, P 0.13 ± 0.1, A -0.119 ± 0.068, V -0.063 ± 0.068, K -0.263 ± 0.27, F -0.165 ± 0.15, E 0.066 ± 0.1, W -0.19 ± 0.081, T 0.088 ± 0.092, Q 0.023 ± 0.1, I -0.317 ± 0.13, L -0.18 ± 0.089, C 0.06 ± 0.082
Y65: T -0.276 ± 0.1, S -0.208 ± 0.075, Q -0.037 ± 0.14, H -0.1 ± 0.18, M -0.093 ± 0.09, E -0.092 ± 0.09, W -0.044 ± 0.11, K -0.178 ± 0.11, I -0.081 ± 0.24, R -0.117 ± 0.049, A -0.158 ± 0.085, L -0.081 ± 0.073, N -0.062 ± 0.12, V 0.02 ± 0.059, C 0.036 ± 0.11, F -0.056 ± 0.1, G -0.218 ± 0.064, D -0.17 ± 0.17
L71: E -0.114 ± 0.15, Y -0.043 ± 0.065, I -0.021 ± 0.068, G -0.128 ± 0.097, H -0.164 ± 0.084, A -0.142 ± 0.095, P -0.15 ± 0.075, F 0.103 ± 0.073, N -0.129 ± 0.072, Q -0.043 ± 0.1, D -0.185 ± 0.15, M 0.115 ± 0.078, K 0.041 ± 0.1, V -0.085 ± 0.064, T 0.073 ± 0.059, R -0.25 ± 0.066, W -0.151 ± 0.11
A73: Q -0.138 ± 0.1, K -0.2 ± 0.12, R 0.008 ± 0.059, N -0.047 ± 0.17, I -0.101 ± 0.14, G -0.06 ± 0.06, L -0.176 ± 0.073, V -0.054 ± 0.067, D -0.026 ± 0.07, C -0.297 ± 0.12, Y -0.166 ± 0.22, M -0.18 ± 0.12, T -0.205 ± 0.27, S 0 ± 0.084, P -0.44 ± 0.15, E 0.013 ± 0.068, W -0.203 ± 0.071, F -0.326 ± 0.12
C64: T -0.553 ± 0.2, N -0.505 ± 0.45, F -0.745 ± 0.48, R -1.06 ± 0.32, M -0.125 ± 0.12, V -0.879 ± 0.27, A -0.306 ± 0.096, L -0.592 ± 0.16, K -0.805 ± 0.29, G -0.606 ± 0.11
K63: V -0.142 ± 0.066, T -0.033 ± 0.068, H -0.423 ± 0.1, G -0.4 ± 0.16, Q -0.084 ± 0.11, S -0.227 ± 0.07, Y -0.704 ± 0.2, N -0.127 ± 0.1, P -0.949 ± 0.23, L -0.111 ± 0.061, F -0.347 ± 0.12, R -0.079 ± 0.071, W -0.482 ± 0.19, M -0.133 ± 0.1, I -0.146 ± 0.095, E 0.009 ± 0.19, D -0.283 ± 0.15
T70: I -0.344 ± 0.29
